Values quoted from earlier work in publication PMC3274258.
Values joined by “and” are separate entries in the source; they are usually repeats but may differ in a detail not shown here. Equal entries are not always repeated. Where two headings read alike, the source gives them in different places. Blank lines part the entries; values can stand above or below the substance they belong to.

What was measured:
[1] = biological target: HtrII (Natronomonas pharaonis) (UniProt P42259)
[2] = biological target: HtrII (Natronomonas pharaonis) (UniProt P42259); remark: listed apart in the source
[3] = biological target: HtrII (Natronomonas pharaonis) (UniProt P42259); remark: listed apart in the source
[4] = biological target: Salinibacter transducer of SRI (SrHtrI); experiment: pH titration experiments (ref 123; detection not specified in the review)
Asp72 = experiment: pH titration; the review does not name the technique, and UV-vis absorption of the retinal chromophore is inferred; details: dark state
[5] = biological target: Halobacterial transducer of SRI (HsHtrI); experiment: not stated in the review (pKa determination quoted from ref 124); details: pH
Asp76 = Asp76 (UniProt position 76, GLRYIDWLVTT)
[6] = biological target: Halobacterial transducer of SRII, truncated (NpHtrII, pHtrII) (UniProt P42259); experiment: not stated in the review (pKa determination of ref 50); details: pH
Asp193 = Asp193 (UniProt position 193, LTPTVDVALIV); details: dark (ground) state

Chain of HtrII (Natronomonas pharaonis) (P42259 whole entry): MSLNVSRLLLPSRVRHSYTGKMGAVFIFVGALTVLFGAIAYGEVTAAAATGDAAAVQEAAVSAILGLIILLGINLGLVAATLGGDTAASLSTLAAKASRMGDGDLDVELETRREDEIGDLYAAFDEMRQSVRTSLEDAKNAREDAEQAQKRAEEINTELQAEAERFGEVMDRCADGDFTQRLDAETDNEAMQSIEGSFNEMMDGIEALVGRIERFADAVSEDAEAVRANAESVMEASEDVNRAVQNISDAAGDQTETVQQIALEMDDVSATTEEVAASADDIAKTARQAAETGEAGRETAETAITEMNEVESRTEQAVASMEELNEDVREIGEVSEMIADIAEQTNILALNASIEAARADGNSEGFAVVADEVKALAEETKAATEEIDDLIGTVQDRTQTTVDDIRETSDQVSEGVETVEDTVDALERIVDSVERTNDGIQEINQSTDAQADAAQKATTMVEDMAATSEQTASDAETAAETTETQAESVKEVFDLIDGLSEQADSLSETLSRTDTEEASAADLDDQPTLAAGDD
Chain of SRII (P42196 whole entry): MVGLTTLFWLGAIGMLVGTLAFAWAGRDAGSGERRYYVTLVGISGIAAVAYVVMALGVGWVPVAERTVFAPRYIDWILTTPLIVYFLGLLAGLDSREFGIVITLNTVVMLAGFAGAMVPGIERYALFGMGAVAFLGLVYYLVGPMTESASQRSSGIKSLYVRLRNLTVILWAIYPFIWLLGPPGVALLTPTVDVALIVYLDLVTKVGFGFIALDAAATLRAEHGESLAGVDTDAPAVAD
Chain of Halobacterial transducer of SRII, truncated (NpHtrII, pHtrII) (P42259 whole entry, the tested form may be a part): as the sequence (P42259 whole entry) above

Substance: Salinibacter sensory rhodopsin I (SrSRI) (Salinibacter ruber)
pKa (Asp72; SrSRI without SrHtrI): 4.3

Substance: Sensory rhodopsin I (HsSRI) (Halobacterium salinarum)
pKa (Asp76; HsSRI associated with HsHtrI): 8.5 | pKa (Asp76; HsSRI without HsHtrI): 7.2

Substance: Sensory rhodopsin II (NpSRII, pharaonis phoborhodopsin, ppR)
pKa, Asp193 of NpSRII [6]: 6.4 pH units and 5.6 pH units

Substance: Sensory rhodopsin II (NpSRII; pharaonis phoborhodopsin, ppR) (Natronomonas pharaonis)
pKa (Asp193; NpSRII bound to truncated NpHtrII (1-114 or 1-159)): 5.6 | pKa (Asp193; NpSRII transducer-free): 6.4

Substance: SrSRI-SrHtrI fusion (Salinibacter sensory rhodopsin I fused to its full-length transducer) (Salinibacter ruber)
pKa (Asp72; SrSRI associated with SrHtrI (fusion construct)): 4.9

Now from value to substance:

Kd [1]: 5 µM | Kd [2]: 15 µM | Kd [3]: 0.16 µM
Substance: SRII (from UniProt P42196)

pKa, Asp72 of SrSRI (Schiff-base counterion) [4]: 4.3 pH units and 4.9 pH units
Substance: Salinibacter sensory rhodopsin I (SrSRI)

pKa, Asp76 of HsSRI (Schiff-base counterion) [5]: 7.2 pH units and 8.5 pH units
Substance: Sensory rhodopsin I (HsSRI)
